Test results reported in patent publication US10450368 (DUKE UNIVERSITY, dated 2019).

Key:
CH505.TF mutant gp120 M6 = target: T1, CH505.TF mutant gp120 M6 (HIV-1); experiment: direct-binding ELISA (OD450), panel 'CH505.TF gp120 M6'
T1 construct: domain: gp120

Jo-1 [1] = target: T2, Jo-1 (UniProt P12081 1-509); experiment: AtheNA, Ab 50 ug/ml
T2 sequence: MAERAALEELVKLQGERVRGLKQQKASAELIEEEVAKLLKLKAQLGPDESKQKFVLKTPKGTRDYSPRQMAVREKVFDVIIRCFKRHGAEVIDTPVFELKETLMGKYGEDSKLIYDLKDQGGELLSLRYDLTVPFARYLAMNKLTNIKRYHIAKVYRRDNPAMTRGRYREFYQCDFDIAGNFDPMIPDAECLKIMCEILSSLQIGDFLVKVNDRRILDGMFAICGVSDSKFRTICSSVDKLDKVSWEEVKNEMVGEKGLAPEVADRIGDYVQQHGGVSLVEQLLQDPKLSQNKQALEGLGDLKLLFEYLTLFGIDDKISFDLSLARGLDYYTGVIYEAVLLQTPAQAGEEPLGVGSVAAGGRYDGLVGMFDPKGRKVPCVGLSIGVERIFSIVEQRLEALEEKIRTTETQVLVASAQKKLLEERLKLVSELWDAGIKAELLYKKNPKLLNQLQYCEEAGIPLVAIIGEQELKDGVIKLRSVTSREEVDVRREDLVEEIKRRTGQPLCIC

Histones [2] = target: T3, Histones; experiment: AtheNA, Ab 6.25 ug/ml
T3 construct: Mixture of proteins

Jo-1 [3] = target: T2, Jo-1; experiment: AtheNA, Ab 6.25 ug/ml
Scl-70 [4] = target: T4, Scl-70 (UniProt P11387 1-765); experiment: AtheNA, Ab 6.25 ug/ml
T4 sequence: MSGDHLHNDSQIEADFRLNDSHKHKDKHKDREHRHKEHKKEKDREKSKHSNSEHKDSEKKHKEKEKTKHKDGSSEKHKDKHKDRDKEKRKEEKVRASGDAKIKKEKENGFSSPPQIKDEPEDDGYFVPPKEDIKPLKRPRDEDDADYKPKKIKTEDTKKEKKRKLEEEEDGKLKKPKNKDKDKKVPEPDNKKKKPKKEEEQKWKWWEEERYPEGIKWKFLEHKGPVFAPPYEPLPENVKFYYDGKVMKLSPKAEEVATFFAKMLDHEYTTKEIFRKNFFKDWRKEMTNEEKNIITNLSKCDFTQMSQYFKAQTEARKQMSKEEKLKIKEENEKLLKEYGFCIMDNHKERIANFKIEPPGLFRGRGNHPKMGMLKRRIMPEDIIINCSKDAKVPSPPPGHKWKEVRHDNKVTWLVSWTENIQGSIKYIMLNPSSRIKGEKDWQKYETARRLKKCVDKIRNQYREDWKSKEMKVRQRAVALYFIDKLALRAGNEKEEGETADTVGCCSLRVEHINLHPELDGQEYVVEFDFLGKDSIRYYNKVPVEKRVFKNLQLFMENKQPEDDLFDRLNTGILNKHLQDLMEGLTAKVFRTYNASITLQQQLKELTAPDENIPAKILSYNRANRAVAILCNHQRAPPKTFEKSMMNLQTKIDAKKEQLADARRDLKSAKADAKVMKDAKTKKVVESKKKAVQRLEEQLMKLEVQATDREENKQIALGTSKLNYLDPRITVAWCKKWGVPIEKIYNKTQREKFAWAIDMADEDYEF

[5] = target: T5, HIV-1 CH505 transmitted/founder gp120 Env (HIV-1); experiment: competition ELISA, blocking of CH106 binding to gp120
T5 construct: domain: gp120; also called CH505.TF gp120; CH505 TF gp120 Env

[6] = target: T5, HIV-1 CH505 transmitted/founder gp120 …; experiment: competition ELISA, blocking of sCD4 binding to gp120
SSA [7] = target: T6, SSA; experiment: AtheNA, Ab 25 ug/ml
T6 construct: also called SSA (Ro)

Sm (Smith antigen) [8] = target: T7, Sm (Smith antigen); experiment: AtheNA, Ab 25 ug/ml
T7 construct: Protein complex

RNP (ribonucleoprotein) [9] = target: T8, RNP (ribonucleoprotein); experiment: AtheNA, Ab 25 ug/ml
T8 construct: Protein-RNA complex

Histones [10] = target: T3, Histones; experiment: AtheNA, Ab 25 ug/ml
SSB [11] = target: T9, SSB (UniProt P05455 1-408); experiment: AtheNA, Ab 25 ug/ml
T9 sequence: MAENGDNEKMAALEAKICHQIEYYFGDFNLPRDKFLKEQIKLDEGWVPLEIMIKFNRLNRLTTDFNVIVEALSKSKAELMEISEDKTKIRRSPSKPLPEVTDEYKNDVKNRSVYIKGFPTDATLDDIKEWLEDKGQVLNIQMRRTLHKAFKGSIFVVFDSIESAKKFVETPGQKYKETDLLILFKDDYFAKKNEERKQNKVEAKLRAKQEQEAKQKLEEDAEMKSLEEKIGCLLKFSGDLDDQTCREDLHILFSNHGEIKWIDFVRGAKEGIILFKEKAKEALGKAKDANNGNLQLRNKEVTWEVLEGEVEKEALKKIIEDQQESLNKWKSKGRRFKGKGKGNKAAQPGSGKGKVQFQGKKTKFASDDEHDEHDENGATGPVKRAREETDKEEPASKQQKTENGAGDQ

Jo-1 [12] = target: T2, Jo-1; experiment: AtheNA, Ab 25 ug/ml
Scl-70 [13] = target: T4, Scl-70; experiment: AtheNA, Ab 25 ug/ml
SSA [14] = target: T6, SSA; experiment: AtheNA, Ab 12.5 ug/ml
Sm (Smith antigen) [15] = target: T7, Sm (Smith antigen); experiment: AtheNA, Ab 12.5 ug/ml
RNP (ribonucleoprotein) [16] = target: T8, RNP (ribonucleoprotein); experiment: AtheNA, Ab 12.5 ug/ml
Histones [17] = target: T3, Histones; experiment: AtheNA, Ab 12.5 ug/ml
SSB [18] = target: T9, SSB; experiment: AtheNA, Ab 12.5 ug/ml
Jo-1 [19] = target: T2, Jo-1; experiment: AtheNA, Ab 12.5 ug/ml
Scl-70 [20] = target: T4, Scl-70; experiment: AtheNA, Ab 12.5 ug/ml

| Binder | AtheNA signal (Histones [2]) | AtheNA signal (Jo-1 [3]) | AtheNA signal (Scl-70 [4]) | IC50 [5] | IC50 [6] | AtheNA signal (SSA [7]) | AtheNA signal (Sm (Smith antigen) [8]) | AtheNA signal (RNP (ribonucleoprotein) [9]) | AtheNA signal (Histones [10]) | AtheNA signal (SSB [11]) | AtheNA signal (Jo-1 [12]) | AtheNA signal (Scl-70 [13]) | AtheNA signal (SSA [14]) | AtheNA signal (Sm (Smith antigen) [15]) | AtheNA signal (RNP (ribonucleoprotein) [16]) | AtheNA signal (Histones [17]) | AtheNA signal (SSB [18]) | AtheNA signal (Jo-1 [19]) | AtheNA signal (Scl-70 [20]) | other results |
| --- | --- | --- | --- | --- | --- | --- | --- | --- | --- | --- | --- | --- | --- | --- | --- | --- | --- | --- | --- | --- |
| CH493 (antibody, V domains shown, also called CH235.9; DH493) VH: QVRLLQYGGGVKRPGASMTISCVASGYNFNDYYIHWVRQAPGQGLELMGWIDPSGGRTDYAGAFGDRVSMYRDKSMNTLYMDLRSLRSGDTAMYYCVRNVGTAGSLLHYDHWGLGVMVTVSS VL: EIVLTQSPATLSVSPGERVTLSCRASQSVRNNLAWYRQKRGQAPRLLIYGASTRATGIPARFSGSGSGTEFTLTISSMQSEDFAVYYCQQYNNWWTFGQGTKVEIK | – | – | – | – | – | – | – | – | – | – | – | – | – | – | – | – | – | – | – | EC50 (read off the curve) (CH505.TF mutant gp120 M6): ~0.5 µg/mL |
| CH557 (antibody, V domains shown, also called CH235.12; CH557_4A/293i) VH: QVRLAQYGGGVKRLGATMTLSCVASGYTFNDYYIHWVRQAPGQGFELLGYIDPANGRPDYAGALRERLSFYRDKSMETLYMDLRSLRYDDTAMYYCVRNVGTAGSLLHYDHWGSGSPVIVSS VL: EIVLTQSPATLSASPGERVTLTCRASRSVRNNVAWYQHKGGQSPRLLIYDASTRAAGVPARFSGSASGTEFTLAISNLESEDFTVYFCLQYNNWWTFGQGTRVDIK | – | – | – | – | – | – | – | – | – | – | – | – | – | – | – | – | – | – | – | AtheNA signal (Jo-1 [1]): 10 relative luminescence units |
| CH235 (antibody, V domains shown, also called CH235_4A) VH: QVQLVQSGAEVKKPGASVTVSCQASGYTFTNYYVHWVRQAPGQGLQLMGWIDPSWGRTNYAQNFQGRITMTRDTSTSTVYMEMRSLRSEDTAVYYCARNVATEGSLLHYDYWGQGTLVTVSA VL: EIVLTQSPATLSVSPGERATLSCRASQSVRSNLAWYQQRPGQAPRLLIYGTSTRATGVPARFSGRGSGTEFTLAISSMQSEDFAVYLCLQYNNWWTFGQGTKVEIK | 5 relative luminescence units | 2 relative luminescence units | 2 relative luminescence units | 16.5 µg/mL | 26.3 µg/mL | 13 relative luminescence units | 7 relative luminescence units | 5 relative luminescence units | 7 relative luminescence units | 5 relative luminescence units | 4 relative luminescence units | 4 relative luminescence units | 13 relative luminescence units | 8 relative luminescence units | 6 relative luminescence units | 5 relative luminescence units | 5 relative luminescence units | 3 relative luminescence units | 2 relative luminescence units | – |
| CH241 (antibody, V domains shown) VH: QVQLVQSGAAVKKPGASVRVSCKASGYTFTSSHIHWVRQAPGQGPEWMGMIDPSVGRPTTAGKFQGRVTMTRDRYTSTAYMDLSSLRSEDTAVYYCARSVETTGSLLYFDYWGQGTLITVSS VL: EIVLTQSPATLSVSPGERATLSCRASQSVRSNIAWYQQKPGQAPRLLIHGASTRATGIPGRFSGSGSGPEFTLAISSVQSEDFAVYYCQQYNDWWTFGQGTKVEIK | 9 relative luminescence units | 2 relative luminescence units | 1 relative luminescence units | 1.5 µg/mL | 2.6 µg/mL | 15 relative luminescence units | 11 relative luminescence units | 6 relative luminescence units | 20 relative luminescence units | 6 relative luminescence units | 5 relative luminescence units | 4 relative luminescence units | 14 relative luminescence units | 7 relative luminescence units | 5 relative luminescence units | 13 relative luminescence units | 8 relative luminescence units | 6 relative luminescence units | 3 relative luminescence units | – |
